From patent US20130174289A1, “Na+/Mg2+ Exchanger” (FBN - Leibnitz-Institut fur Nutztierbiologie, priority 2010, published 2013)

Target: T1, SLC41A1 (Homo sapiens, UniProt Q8IVJ1)
T1 construct: split-ubiquitin half (bait fusion); expressed in transfected cells
Assay: Split-ubiquitin screen for SLC41A1 complex-forming partners
Assay type: binding
Settings: for occurrence: frequency of occurrence = number of clones that revealed interaction with SLC41A1
Excerpt: These SLC41A1 complex-forming partners were screened out by the split-ubiquitin method, which is well known in the art and are listed in detail in Table 1. The ubiquitin-based split protein sensor (USPS) is the method that makes it possible to detect and monitor protein-protein interactions as a function of time, at the natural sites of these interactions in a living cell. Details on the method can be found in Johnsson and Varshaysky, 1994.
In order to shorten the table, multiple entries were deleted and only the frequency of occurrence (Occurrence) is indicated as a number. The singletons listed in Table 2 are the weakest partners. They are organized from the strongest to the weakest.
In the above tables 1 and 2 underlined names indicate highly connected proteins, found in the majority of DUALmembrane SU-YTH screens. Highly connected proteins include chaperones, stress-induced endoplasmatic reticulum proteins, components of the translocon machinery and proteins involved in membrane protein sorting and transport.

T1 sequence (Q8IVJ1 whole entry, the tested form may be a part): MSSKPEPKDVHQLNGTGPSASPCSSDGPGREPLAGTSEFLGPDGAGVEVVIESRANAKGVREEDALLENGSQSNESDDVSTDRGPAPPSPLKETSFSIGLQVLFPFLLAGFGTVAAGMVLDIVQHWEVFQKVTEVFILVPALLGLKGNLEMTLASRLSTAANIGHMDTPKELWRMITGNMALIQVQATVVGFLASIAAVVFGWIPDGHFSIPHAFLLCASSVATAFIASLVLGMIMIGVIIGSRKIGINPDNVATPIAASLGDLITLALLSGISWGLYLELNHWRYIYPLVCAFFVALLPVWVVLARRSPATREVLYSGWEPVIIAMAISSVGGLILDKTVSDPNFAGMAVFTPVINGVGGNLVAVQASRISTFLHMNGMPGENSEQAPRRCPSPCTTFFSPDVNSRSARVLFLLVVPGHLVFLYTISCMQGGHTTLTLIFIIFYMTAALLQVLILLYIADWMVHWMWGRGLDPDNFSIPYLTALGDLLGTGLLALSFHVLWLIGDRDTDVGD

B1: B-cell receptor-associated protein 31 OS = Homo sapiens: SLC41A1 complex-forming partner from split-ubiquitin screen; GN = BCAP31 (protein)
chain: MSLQWTAVATFLYAEVFVVLLLCIPFISPKRWQKIFKSRLVELLVSYGNTFFVVLIVILVLLVIDAVREIRKYDDVTEKVNLQNNPGAMEHFHMKLFRAQRNLYIAGFSLLLSFLLRRLVTLISQQATLLASNEAFKKQAESASEAAKKYMEENDQLKKGAAVDGGKLDVGNAEVKLEEENRSLKADLQKLKDELASTKQKLEKAENQVLAMRKQSEGLTKEYDRLLEEHAKLQAAVDGPMDKKEE
split-ubiquitin screening
  clones identified with interaction with SLC41A1: Ten

B2: Protein YIPF6 OS = Homo sapiens: SLC41A1 complex-forming partner from split-ubiquitin screen; GN = YIPF6 (protein, UniProt Q96EC8 2-236, looked up)
Protein YIPF6: AEAEESPGDPGTASPRPLFAGLSDISISQDIPVEGEITIPMRSRIREFDSSTLNESVRNTIMRDLKAVGKKFMHVLYPRKSNTLLRDWDLWGPLILCVTLALMLQRDSADSEKDGGPQFAEVFVIVWFGAVTITLNSKLLGGNISFFQSLCVLGYCILPLTVAMLICRLVLLADPGPVNFMVRLFVVIVMFAWSIVASTAFLADSQPPNRRALAVYPVFLFYFVISWMILTFTPQ
  occurrence: 2

B3: 3-beta-hydroxysteroid-Delta(8), Delta(7)-isomerase OS = Rattus norvegicus: SLC41A1 complex-forming partner from split-ubiquitin screen; GN = Ebp (protein, UniProt Q9JJ46 2-230, looked up)
3-beta-hydroxysteroid-Delta(8) …: TTNMLPLHPYWPRHLRLDNFVPNDLPTWHILVGLFSFSGVLIVITWLLSSRVSVVPLGTGRRLALCWFAVCTFIHLVIEGWFSFYHEILLEDQAFLSQLWKEYSKGDSRYILSDGFIVCMESVTACLWGPLSLWVVIAFLRHQPFRFVLQLVVSVGQIYGDVLYFLTELRDGFQHGELGHPLYFWFYFVIMNAIWLVIPGILVFDAIKHLTNAQSMLDNKVMKIKSKHN
  occurrence: 1
